The record followed here is patent US20140105889A1 (published 2014).

Residue numbers refer to the chain shown, from its start. Names and notes keep the numbering of the source.

Sequences and labels used below:
B1: IL6R-PD094/IL6R-L (antibody, human IgG1)
heavy: QVQLQESGPGLVKPSETLSLTCAVSGHSISHDHAWSWVRQPPGEGLEWIGFISYSGITNYNPSLQGRVTISRDNSKNTLYLQMNSLRAEDTAVYYCARSLARTTAMDYWGEGTLVTVSSASTKGPSVFPLAPSSKSTSGGTAALGCLVKDYFPEPVTVSWNSGALTSGVHTFPAVLQSSGLYSLSSVVTVPSSSLGTQTYICNVNHKPSNTKVDKKVEPKSCDKTHTCPPCPAPELLGWDSVFLFPPKPKDTLYISRTPEVTCVVVDVSHEDPEVKFNWYVDGVEVHNAKTKPREEQYNSTYRVVSVLTVLHQDWLNGKEYKCKVSNKALPAPIEKTISKAKGQPREPQVYTLPPSRDELTKNQVSLTCLVKGFYPSDIAVEWESNGQPENNYKTTPPVLDSDGSFFLYSKLTVDKSRWQQGNVFSCSVMHEALHYHYTQKSLSLSP
light: DIQMTQSPSSLSASVGDRVTITCRASQDISSYLNWYQQKPGKAPKLLIYYTSRLHSGVPSRFSGSGSGTDFTFTISSLQPEDIATYYCQQGNTLPYTFGQGTKVEIK
notes: PD variant: P238D/G237W introduced into IL6R-F11 (EU numbering); copies: 2 + 2
B2: IL6R-PD087/IL6R-L (antibody, human IgG1)
heavy: B1 heavy with W239M
light: B1 light
notes: PD variant: P238D/G237M introduced into IL6R-F11 (EU numbering); copies: 2 + 2
B3: IL6R-PD095/IL6R-L (antibody, human IgG1)
heavy: B1 heavy with W239Y
light: B1 light
notes: PD variant: P238D/G237Y introduced into IL6R-F11 (EU numbering); copies: 2 + 2
B4: IL6R-PD097/IL6R-L (antibody, human IgG1)
heavy: B1 heavy with W239G, S241D
light: B1 light
notes: PD variant: P238D/S239D introduced into IL6R-F11 (EU numbering); copies: 2 + 2
B5: IL6R-PD086/IL6R-L (antibody, human IgG1)
heavy: B1 heavy with W239L
light: B1 light
notes: PD variant: P238D/G237L introduced into IL6R-F11 (EU numbering); copies: 2 + 2
B6: IL6R-BP206/IL6R-L (antibody, human IgG1)
heavy: B1 heavy with E235D, W239G, Y254M, P273G, A332R, Y436N, K441E
light: B1 light
notes: Anti-human IL-6 receptor IgG1 Fc variant
B7: IL6R-BP203/IL6R-L (antibody, human IgG1)
heavy: B1 heavy with W239D, Y254M, P273G, A332R, Y436N, K441E
light: B1 light
notes: as for B6
B8: IL6R-BP211/IL6R-L (antibody, human IgG1)
heavy: B1 heavy with E235D, W239G, Y254M, H270D, P273G, K328A, A332R, Y436N, K441E
light: B1 light
notes: as for B6
B9: IL6R-BP148/IL6R-L (antibody, human IgG1)
heavy: B1 heavy with E235D, L236Y, W239D, Y254M, K328A, A332K, Y436N, K441E
light: B1 light
notes: EU numbering
B10: IL6R-BP151/IL6R-L (antibody, human IgG1)
heavy: B1 heavy with E235D, L236Y, W239D, Y254M, K328A, A332R, Y436N, K441E
light: B1 light
notes: EU numbering
B11: IL6R-BP177/IL6R-L (antibody, human IgG1)
heavy: B1 heavy with E235D, L236Y, W239D, Y254M, P273G, K328D, A332K, Y436N, K441E
light: B1 light
notes: EU numbering
B12: IL6R-BP150/IL6R-L (antibody, human IgG1)
heavy: B1 heavy with L236Y, W239D, Y254M, K328A, A332R, Y436N, K441E
light: B1 light
notes: EU numbering
B13: IL6R-BP178/IL6R-L (antibody, human IgG1)
heavy: B1 heavy with E235D, W239D, Y254M, P273G, A332K, Y436N, K441E
light: B1 light
notes: EU numbering
B14: IL6R-BP181/IL6R-L (antibody, human IgG1)
heavy: B1 heavy with E235D, W239G, Y254M, P273G, K328A, A332K, Y436N, K441E
light: B1 light
notes: EU numbering
B15: IL6R-BP176/IL6R-L (antibody, human IgG1)
heavy: B1 heavy with E235D, W239G, Y254M, K328D, A332K, Y436N, K441E
light: B1 light
notes: EU numbering
B16: F1060 (antibody, human IgG1, kappa, name in EU numbering)
heavy: B1 heavy with W239G, D240P, Q388S, Y438V
light: not shown
notes: copies: 2 + 2
B17: F1071 (antibody, human IgG1, kappa, name in EU numbering)
heavy: B1 heavy with W239G, D240P, Y438V, Q440S
light: not shown
notes: copies: 2 + 2
B18: F1072 (antibody, name in EU numbering)
heavy: B1 heavy with W239G, D240P, Y438V, S442E
light: not shown
notes: copies: 2 + 2
B19: IL6R-BP130/IL6R-L (antibody, human IgG1)
heavy: B1 heavy with E235D, W239G, Y254M, V325M, A332K, Y436N, K441E
light: B1 light
notes: copies: 2 + 2
B20: IL6R-BP145/IL6R-L (antibody, human IgG1)
heavy: B1 heavy with L236Y, W239D, Y254M, Y436N, K441E
light: B1 light
notes: copies: 2 + 2
B21: IL6R-BP088/IL6R-L (antibody, human IgG1)
heavy: B1 heavy with W239D, Y254M, K328A, A332K, Y436N, K441E
light: B1 light
notes: copies: 2 + 2
B22: IL6R-G1d/IL6R-L (antibody, human IgG1)
heavy: not shown
light: B1 light
notes: Anti-human IL-6 receptor IgG1 with the G1d constant region (C-terminal Gly and Lys removed); template used for producing IL6R-B3; also called IgG1; copies: 2 + 2
B23: IL6R-BP086/IL6R-L (antibody, human IgG1)
heavy: B1 heavy with W239G, Y254M, K328A, A332K, Y436N, K441E
light: B1 light
notes: copies: 2 + 2

One experiment addresses T1, human FcγRIIb (human, UniProt P31994 43-217).
T1 construct: also called FcγIIB; FcγRIIb extracellular region
T1 sequence: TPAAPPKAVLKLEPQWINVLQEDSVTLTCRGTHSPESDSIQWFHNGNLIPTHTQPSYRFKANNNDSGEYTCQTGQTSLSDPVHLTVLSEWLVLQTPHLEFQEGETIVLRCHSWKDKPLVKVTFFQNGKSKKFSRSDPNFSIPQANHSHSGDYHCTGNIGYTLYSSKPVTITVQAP
The experiment is described as follows: SPR (Biacore), antibody captured on chip, FcγR as analyte; binding amount divided by that of IL6R-F652/IL6R-L, times 100. A general note: SPR reads the build-up and loss of mass on a sensor chip optically.
Consider B1, for which the “relative binding activity for FcγRIIb” value is 122 % of the binding amount of IL6R-F652/IL6R-L. Same read-out and setting: with B2 the figure was 109 % of the binding amount of IL6R-F652/IL6R-L. Still for that read-out and setting: next, B3: 124 % of the binding amount of IL6R-F652/IL6R-L.

Turning to B4, the “relative binding activity for FcγRIIb” value was 139 % of the binding amount of IL6R-F652/IL6R-L. On the same count and under the same terms, with B5 the figure was 112 % of the binding amount of IL6R-F652/IL6R-L.

For the next experiment, the target named is T2, human FcγRIIa type R (human, UniProt P12318 36-217).
T2 construct: also called Fcγ RIIaR; FcγRIIa(R)
T2 chain: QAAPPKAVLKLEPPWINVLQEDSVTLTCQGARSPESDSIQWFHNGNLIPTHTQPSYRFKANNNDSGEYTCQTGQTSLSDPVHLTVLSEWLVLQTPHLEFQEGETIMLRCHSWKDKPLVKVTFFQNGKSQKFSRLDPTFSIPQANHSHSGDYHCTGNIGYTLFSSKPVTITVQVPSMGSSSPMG
The experiment is described as above.
In the case of B1, the “relative binding activity for FcγRIIaR” value was 593 % of the binding amount of IL6R-F652/IL6R-L. Same read-out and setting: next, B2: 196 % of the binding amount of IL6R-F652/IL6R-L; B3: 543 % of the binding amount of IL6R-F652/IL6R-L. In the case of B4, the “relative binding activity for FcγRIIaR” value is 844 % of the binding amount of IL6R-F652/IL6R-L. In the case of B5, the “relative binding activity for FcγRIIaR” value was 268 % of the binding amount of IL6R-F652/IL6R-L.

The target of another experiment is T3, FcγRIIIa type V (human, UniProt P08637 17-208, limits assumed).
T3 construct: Soluble analyte in Biacore; also called FcγRIIIaV; FcγRIIIa(V)
T3 sequence (P08637 other isoform, or with tags, fused parts or gaps limits assumed): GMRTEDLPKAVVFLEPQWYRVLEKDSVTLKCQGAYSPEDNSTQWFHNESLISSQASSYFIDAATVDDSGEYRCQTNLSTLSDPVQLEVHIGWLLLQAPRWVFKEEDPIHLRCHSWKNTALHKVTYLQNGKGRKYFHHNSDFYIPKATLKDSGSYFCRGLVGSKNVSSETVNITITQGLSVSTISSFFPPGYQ
The experiment is described as follows: SPR (Biacore), antibody captured on chip, FcγR as analyte, method of Example 14.
One may read the Kd as a measure of binding affinity in units of concentration. A high value points to weaker binding. In turn, B6 returned a Kd of 69000 nM. Same read-out and setting: with B7 the figure was 72000 nM. Same read-out and setting: with B8 the figure was 75000 nM.

The next experiment deals with T4, FcγRIIb (human, UniProt P31994 43-217, limits assumed).
T4 construct: also called FcγIIB; FcgRIIb
T4 sequence: T1 sequence
The experiment is described as follows: ratio of SPR KD values of this variant (FcγRIIaH over FcγRIIb).
From the text: (§1) Furthermore, KD(IIaR)/KD(IIb) and KD(IIaH)/KD(IIb) in the table respectively represent the value obtained by dividing the KD value of each variant for FcγRIIaR by the KD value of each variant for FcγRIIb, and the value obtained by dividing the KD value of each variant for FcγRIIaH by the KD value of each variant for FcγRIIb.
As for B9, the “KD (IIaH)/KD (IIb)” value worked out at 93.8. On the same count and under the same terms, next, B10: 118. The same measure, in the same setting: next, B11: 159; B12: 109; B13: 272. Same read-out and setting: next, B14: 182. B15: the “KD (IIaH)/KD (IIb)” value came out at 83.1.

The target in another experiment is T5, human FcRn (human).
T5 construct: also called hFcRn; soluble human FcRn complexed with β2-microglobulin
T5 sequence (chain, as listed by the source limits assumed, chain 1 of 2): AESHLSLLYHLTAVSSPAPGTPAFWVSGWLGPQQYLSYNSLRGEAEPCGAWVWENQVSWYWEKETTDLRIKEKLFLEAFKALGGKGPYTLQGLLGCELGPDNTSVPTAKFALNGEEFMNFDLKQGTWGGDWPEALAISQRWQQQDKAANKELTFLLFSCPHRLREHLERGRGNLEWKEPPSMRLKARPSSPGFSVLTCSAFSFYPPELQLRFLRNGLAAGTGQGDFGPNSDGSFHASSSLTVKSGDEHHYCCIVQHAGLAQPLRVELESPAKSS
T5 sequence (P61769 21-119 limits assumed, chain 2 of 2): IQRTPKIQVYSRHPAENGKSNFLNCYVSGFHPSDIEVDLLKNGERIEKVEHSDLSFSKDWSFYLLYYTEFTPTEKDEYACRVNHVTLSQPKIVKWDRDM
The experiment is described as follows: SPR (Biacore), pH 7.0, 25 C, antibody captured by Protein L, human FcRn as analyte.
Method: A kinetic analysis of binding between human FcRn and the aforementioned antibodies was carried out using the Biacore T100 or T200 (GE Healthcare). The antibodies being tested were captured on the CM4 Sensor Chip (GE Healthcare) on which a suitable amount of Protein L (ACTIGEN) was suitably immobilized by amine coupling. Next, diluted human FcRn and a running buffer used as a blank were injected to allow the human FcRn to interact with the antibody captured on the sensor chip. A buffer consisting of 50 mmol/L sodium phosphate, 150 mmol/L NaCl and 0.05% (w/v) Tween 20 (pH 7.0 or pH 7.4) was used for the running buffer, and each buffer was also used to dilute the human FcRn. 10 mmol/L glycine-HCl (pH 1.5) was used to regenerate the sensor chip. All measurements of binding were carried out at 25° C. The KD(M) of each antibody to human FcRn was calculated based on kinetics parameters, i.e., the association rate constant ka (1/Ms) and the dissociation rate constant kd (1/s) calculated from a sensorgram obtained by the measurement. The Biacore T100 or T200 Evaluation Software (GE Healthcare) was used to calculate each parameter.
The molecule B16 showed a Kd of 143 nM. Same read-out and setting: next, B17: 124 nM. The same measure, in the same setting: next, B18: 135 nM.

Another experiment concerns the target T6, human FcγRIIb (human, UniProt P31994 43-217, limits assumed).
T6 construct: also called FcγIIB; hFcgRIIb
T6 sequence: T1 sequence
The experiment is described as follows: ratio of this variant's SPR KD for FcγRIIaR to its KD for FcγRIIb.
From the text: as §1
On to B19, for which the “KD (IIaR)/KD (IIb)” value is 17.5. Same read-out and setting: next, B20: 9.9.

For the molecule B21, the “KD (IIaR)/KD (IIb)” value amounted to 13.3. B22: the “KD (IIaR)/KD (IIb)” value was 0.4.

For B23, the “KD (IIaR)/KD (IIb)” value was 17.1.

Another experiment addresses T7, FcγRIIa type H (human, UniProt P12318 36-217).
T7 construct: also called FcγRIIaH; FcγRIIa(H)
T7 sequence: T2 chain with R133H
The experiment is described as follows: SPR (Biacore), captured antibody, FcγR as analyte, method of Example 14.
In turn, B9 gave a Kd of 9000 nM. Same read-out and setting: next, B11: 6200 nM; B13: 1400 nM; B14: 2600 nM. Still for that read-out and setting: next, B15: 3000 nM.

The next experiment concerns the target T6, human FcγRIIb. The experiment is described as follows: ratio of this variant's SPR KD for FcγRIIaH to its KD for FcγRIIb.
From the text: as §1
With B19, the “KD (IIaH)/KD (IIb)” value was determined as 55.5. Same read-out and setting: next, B20: 49.9; B21: 106; B22: 0.3. On to B23, for which the “KD (IIaH)/KD (IIb)” value was 89.9.

Another experiment deals with T4, FcγRIIb. The experiment is described as follows: ratio of SPR KD values of this variant (FcγRIIaR over FcγRIIb).
From the text: as §1
For the molecule B9, the “KD (IIaR)/KD (IIb)” value stood at 14.5.

With B10, the “KD (IIaR)/KD (IIb)” value was found to be 16.9.

On to B11, for which the “KD (IIaR)/KD (IIb)” value was 13.6. Same read-out and setting: next, B12: 17.7; B13: 18.1; B14: 20.3. Still for that read-out and setting: next, B15: 19.1.
